The target of one test is C1q. As to the kind of experiment: SPR (Biacore 8K+), antibody captured by anti-human IgG Fc, C1q injected at 25 nM, mean response. In general terms: Surface plasmon resonance follows binding to a sensor surface in real time, without labels.
The target in a further test is human FcRn (human) (UniProt P55899). As to the kind of experiment: SPR (Biacore 8K+), antibody captured by anti-human kappa, human FcRn injected, pH 5.8; pH 5.8.
For test [1], the target named is cynomolgus FcRn (cynomolgus) (UniProt Q8SPV9). As to the kind of experiment: SPR (Biacore 8K+), antibody captured by anti-human kappa, cynomolgus FcRn injected, pH 5.8; pH 5.8.

Two substances from US20260217843A1 can be followed below.

pKd: −log10 of the molar value.

Sequence of human FcRn (human) (P55899 24-297 limits assumed, form in doubt, chain 1 of 2): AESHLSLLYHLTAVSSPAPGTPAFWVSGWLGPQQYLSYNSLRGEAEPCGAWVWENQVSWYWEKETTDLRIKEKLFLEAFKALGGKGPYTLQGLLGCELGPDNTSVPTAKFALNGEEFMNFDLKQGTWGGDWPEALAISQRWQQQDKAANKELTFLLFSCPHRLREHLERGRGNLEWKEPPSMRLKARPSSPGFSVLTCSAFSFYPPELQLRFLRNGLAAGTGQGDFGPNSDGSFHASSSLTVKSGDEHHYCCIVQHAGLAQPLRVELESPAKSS
Sequence of human FcRn (human) (chain, as listed by the source limits assumed, form in doubt, chain 2 of 2): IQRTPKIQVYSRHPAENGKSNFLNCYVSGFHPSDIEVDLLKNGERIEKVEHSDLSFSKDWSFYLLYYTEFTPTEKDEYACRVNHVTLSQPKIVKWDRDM
Sequence of C1q (P02745 23-245, chain 1 of 3): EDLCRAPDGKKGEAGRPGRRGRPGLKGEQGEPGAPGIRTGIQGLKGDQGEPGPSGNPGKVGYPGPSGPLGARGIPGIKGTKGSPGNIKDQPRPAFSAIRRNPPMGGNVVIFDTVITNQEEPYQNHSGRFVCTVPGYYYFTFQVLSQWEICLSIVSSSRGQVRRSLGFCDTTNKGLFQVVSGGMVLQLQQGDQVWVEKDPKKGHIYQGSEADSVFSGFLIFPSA
Sequence of C1q (P02746 28-253, chain 2 of 3, further chain): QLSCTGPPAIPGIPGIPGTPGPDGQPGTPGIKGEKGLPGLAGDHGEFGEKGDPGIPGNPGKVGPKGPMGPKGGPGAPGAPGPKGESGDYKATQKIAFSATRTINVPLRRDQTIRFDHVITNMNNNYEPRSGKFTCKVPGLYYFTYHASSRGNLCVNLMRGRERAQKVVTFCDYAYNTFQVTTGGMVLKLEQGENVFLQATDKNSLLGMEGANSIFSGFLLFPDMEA
Sequence of C1q (P02747 29-245, chain 3 of 3, further chain): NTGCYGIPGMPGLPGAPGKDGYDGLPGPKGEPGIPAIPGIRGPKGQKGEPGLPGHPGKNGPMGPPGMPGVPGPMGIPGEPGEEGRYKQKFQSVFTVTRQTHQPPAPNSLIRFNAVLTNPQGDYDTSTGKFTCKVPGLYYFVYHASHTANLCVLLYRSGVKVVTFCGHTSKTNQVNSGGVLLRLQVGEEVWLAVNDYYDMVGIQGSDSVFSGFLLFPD

Rituximab, an anti-CD20 antibody: the RU at 25 nM C1q with C1q worked out at 386 RU. “positive control based on the sequences of the anti-hOX40L antibody amlitelimab”: the negative logarithm of the Kd (pKd) (as a rule, the Kd on a negative log10 scale, so that one unit is a factor of ten) in the test with human FcRn (human) is 5.95; in test [1] it was 6.03.
